From the Human Domainome abundance scans (Beltran et al. 2025)

B1: Friend leukemia integration 1 transcription factor, residues 116 to 197; numbered along this chain, Q01543 (parent)
chain: NMTTNERRVIVPADPTLWTQEHVRQWLEWAIKEYSLMEIDTSFFQNMDGKELCKMNKEDFLRATTLYNTEVLLSHLSYLRES

Variants of: B1
Assay: abundance fitness (aPCA) (normalised: wild type 0, dead -1); higher = more abundant; growth selection in yeast, the domain comes from the species named
Conditions: Homo sapiens

Abundance fitness: each site, then its substitutions
T41: Y 0.051, A -0.035, H -0.14, L 0.051, N -0.103, Q -0.076, D 0.063, P 0.003, F 0.302, K 0.011, V -0.09, E -0.08, G -0.129, R -0.079, C 0.015
K54: G -0.015, Q -0.057, H -0.494, L -0.017, T -0.204, V -0.14, E 0.1, P -0.687, N 0.02, Y -0.359, S -0.01, R -0.063, M 0.021, W -0.396, D 0.098
L52: S -0.991, P -0.627, A -0.602, C -0.692, V -0.192, E -0.976, R -1.03, F -0.072, G -0.915, M -0.277, W -0.943, I -0.608, T -0.928
S42: N 0.291, L -0.134, M -0.11, E -0.352, V -0.07, K -0.223, H -0.054, D 0.084, P -0.094, A -0.037, Y -0.264, R -0.115, T 0.023, G -0.062, W -0.294
L36: K -0.839, I 0.08, N -0.742, S -0.566, T -0.51, Q -0.603, V -0.21, R -1.04, P -0.573
I39: A -0.259, Q -0.743, K -1.04, G -0.85, P -0.654, E -0.261, M 0.027, R -1, V 0.019, W -0.57, C -0.102, T -0.159, F -0.112, L -0.017
M55: E -0.805, V -0.331, P -0.784, A -0.119, T -0.204, R -0.444, I -0.381, W -0.04, K 0.021, G -0.75, Y -0.273, Q -0.158, L 0.011, S -0.424, N -0.752, C 0.007
K57: H -0.52, N -0.071, M 0.008, D -0.312, L -0.213, E -0.135, A -0.268, G -0.433, F -0.451, Q 0.043, C -0.212
N56: W -0.221, A -0.091, F -0.515, H 0.12, V -0.054, R -0.226, L -0.129, P -0.155, Y -0.54, Q -0.043, K 0.125, S -0.043, D -0.033, G 0.049, C -0.157, E 0.178, I -0.247, M -0.002
C53: G -0.142, Q -0.099, A -0.222, M -0.134, N -0.197, R -0.72, T -0.048, P -0.905, V -0.017, Y -0.377, W -0.463, F 0.031, L 0.153, S -0.213, E -0.409, K -0.553, H -0.324
E38: Q -0.215, I -0.32, L -0.04, F -0.329, H -0.231, R -0.203, G -0.131, C -0.126, S -0.068, M -0.09, T -0.145, K -0.087, W -0.349, V -0.231, N -0.397
M47: A -0.162, G -0.848, F -0.293, I 0.077, K -0.161, N -0.285, R -0.239, E -1.08, P -0.706, V -0.093, H -0.248, Y 0.092, L -0.004, T -0.344, W -0.417
F43: Y -0.013, V -0.118, T -0.11, K -0.118, D -0.175, R -0.091, W 0.002, I -0.164, H -0.167, P -0.052, A -0.063, M -0.019, Q 0.004, L 0.077, S -0.037, C -0.35, G -0.204
D48: S -0.013, H -0.366, K -0.227, A -0.118, R -0.305, Y -0.358, M -0.464, E -0.222, T -0.04, W -0.82, P -0.295, N -0.201, G -0.114, Q -0.205, C -0.388, V 0.031, I -0.391
G49: K -0.994, M -0.965, T -0.919, W -0.777, A -1.01, Q -0.977, S -0.943, L -0.579, I -0.506, R -0.889, V -0.755
N46: H 0.297, F 0.045, I -0.397, W -0.114, C -0.153, S -0.087, Y -0.09, T 0.071, K 0.033, R 0.066, V -0.34, M -0.135, A -0.077, P -0.205, G -0.089, L -0.175
E51: L -0.135, M -0.1, I -0.259, T 0.034, P -0.766, G -0.058, C -0.219, Y -0.679, R -0.084, V -0.127, D -0.332, F -0.243, H 0.068, K -0.01, W -0.477, Q 0.03
M37: N -0.44, D 0.021, Q -0.242, F 0.187, V 0.066, E -0.115, G -0.02, R -0.055, S -0.078, K 0.008, L -0.001, W -0.13, T 0.055, C -0.317, A 0.003, P -0.076, Y 0.059
F44: S -0.499, G -0.637, L -0.227, T -0.453, M -0.331, W -0.13, P -0.744, D -0.914, I -0.278, E -0.991, A -0.095, C -0.117, H -0.884, N -0.875, Q -0.96, R -1.05, V -0.21
D40: I -0.576, V -0.892, K -0.276, N 0.162, W -0.887, T -0.268, R -0.469, L -0.921, M -0.67, Q -0.252, Y -0.686, G -0.631, A -0.486, E -0.043, P -0.162, S -0.217
K50: V -0.159, M -0.087, P 0.013, W -0.239, I -0.113, C -0.281, T 0.212, Q 0.013, G -0.059, D -0.093, F -0.064, N 0.068, E 0.058, Y 0.249, H 0.031, L -0.12, S -0.032
Q45: V 0.062, K -0.048, S -0.003, L -0.009, F -0.102, A 0.028, Y 0, D -0.295, C -0.081, T -0.068, G -0.04, M 0.026, E 0.045, H -0.072, P -0.381, W 0.056, R 0.091
